Test results: patent publication US20240027454

How the values were obtained:
[1] = system: T1, 4-([4-(H-Ala-Ala-Pro-Val-Ala)amido N-piperazino]phenyl)-bis-(4-dimethyl-aminophenyl)-carbenium ion
T1 sequence: AAPVX

[2] = system: T2, AAPVA-RBB linked to poly-(N-acroyl-Boc-Lys-OH)-co-(acroyl-Cys(Trt)-OH)
T2 sequence: AAPVX

[3] = system: T3, AAPVA-RBB linked to polymer, product of Step A of Example 62 after trifluoroacetic acid treatment
T3 sequence: AAPVX

CMC 9M31F-AAPF-RBB [4] = system: CMC 9M31F-AAPF-RBB
CMC 9M31F-AAPFA-RBB [5] = system: CMC 9M31F-AAPFA-RBB
[6] = system: Fmoc-AAPF-aminoethyl-(Remazol Black B)-(N-acetyl)-ethylamide
[7] = target: AAPVA-RBB Bound to Paper Membrane
CMC 9M31F-AAPF-RBB [8] = target: CMC 9M31F-AAPF-RBB; remark: listed apart in the source
CMC 9M31F-AAPFA-RBB [9] = target: CMC 9M31F-AAPFA-RBB; remark: listed apart in the source
Fmoc-AAA-indoxyl ester = target: T4, Fmoc-AAA-indoxyl ester
T4 chain: AAA

[10] = target: Fmoc-AAPF-aminoethyl-(Remazol Black B)-(N-acetyl)-ethylamide; remark: listed apart in the source
[11] = target: Fmoc-AAPV-4-methoxy-1-naphthol ester
[12] = target: Fmoc-AAPV-4-naphthol ester
[13] = target: T5, Fmoc-AAPVAV-{2-hydroxy-3-[1-(5N-RBB-methyl)1,2,3-triazolyl)}propylamide
T5 chain: XAPVAX

Fmoc-APV-Indoxyl ester = target: T6, Fmoc-APV-Indoxyl ester
T6 chain: APV

[14] = target: T7, Fmoc-F-V-T(Bzl)-F- indoxyl ester (not fully specified)
T7 chain: FVTF

H-AAAPM-RBB = target: T8, H-AAAPM-RBB
T8 chain: AAAPX

H-AAPFA-RBB = target: T9, H-AAPFA-RBB
T9 chain: AAPFX

H-AAPVAA-RBB = target: T10, H-AAPVAA-RBB
T10 chain: AAPVAX

[15] = target: HEC-EDA-N-propionyl-AAPF-RBB
[16] = target: HEC-PEG200-N-propionyl-AAPF-RBB
[17] = target: T11, 4-([4-(H-Ala-Ala-Pro-Val-Ala)amido N-piperazino]phenyl)-bis-(4-dimethyl-aminophenyl)-carbenium ion polyacrylamide (not fully specified)
T11 chain: AAPVX

[18] = target: T12, AAAPV-RBB bound to Beads (Sephabeads ECEP, epoxy activated)
T12 chain: AAAPX

[19] = target: T13, AAAPV-RBB linked through Jeffamine EDR 176 to polyacrylate quenched with N,N-dioctyl amine (not fully specified)
T13 chain: AAAPX

[20] = target: T14, AAAPV-RBB polyacrylamide with N,N-dioctylamine anchors (not fully specified)
T14 chain: AAAPX

[21] = target: T15, AAAPVV-RBB linked through Jeffamine EDR 176 to polyacrylate quenched with N,N-dioctyl amine (not fully specified)
T15 chain: AAAPVX

[22] = target: T16, AAAPVV-RBB on polyacrylate bound to Chemicell SiCore Amin beads
T16 chain: AAAPVX

[23] = target: T17, AAAPVV-RBB on polyacrylate bound to SiCore Amin beads, procedure f
T17 chain: AAAPVX

[24] = target: T18, AAAPVV-RBB polyacrylamide with N,N-dioctylamine anchors (not fully specified)
T18 chain: AAAPVX

[25] = target: T19, AAPVA-RBB linked through ethylenediamine-glycyl spacer to polyacrylate (not fully specified)
T19 chain: AAPVX

[26] = target: T20, AAPVA-RBB linked to poly-(N-acroyl-Boc-Lys-OH)-co-(acroyl-Cys(Trt)-OH)
T20 chain: AAPVX

[27] = target: T21, AAPVA-RBB linked to polymer, product of Step A of Example 62 after trifluoroacetic acid treatment (not fully specified)
T21 chain: AAPVX

[28] = target: Fmoc-AAAPV-(N-acetyl)-indoxyl ester
[29] = target: Fmoc-AAPV-5-Bromo-4-Chloro-Indoxyl ester
[30] = target: HEC-EDR176-N-Propionyl-AAPVA-RBB
[31] = target: N-(Propionyl-AAPV-RBB)-Propylamino HEC
[32] = target: T22, N-[(3-triethoxysilyl)propyl]-N'-[AAAPVV-RBB]urea bound to silica gel (not fully specified)
T22 chain: XAAPVX

[33] = target: T23, Non-bead-bound polymeric material of Example 67 (AAAPVV-RBB polyacrylamide quenched with ethanolamine) (not fully specified)
T23 chain: AAAPVX

[34] = target: Peptide-Labelled beadBALL Amine Microspheres with Long-Chain Linker (PEG(2000)-AAPV-RBB)
[35] = target: T24, Poly-co-[(N-mercaptoethyl acrylamide)-(AAAPV-{RBB}-acrylamide)], procedure a (not fully specified)
T24 chain: AAAPX

[36] = target: T25, Poly-co-[(N-mercaptoethyl acrylamide)-(AAAPV-{RBB}-acrylamide)], procedure b
T25 chain: AAAPX

[37] = target: T26, Poly-co-[(N-mercaptoethyl acrylamide)-(AAAPVV-{RBB}-acrylamide)], procedure a
T26 chain: AAAPVX

[38] = target: T27, Poly-co-[(N-mercaptoethyl acrylamide)-(AAAPVV-{RBB}-acrylamide)], procedure b
T27 chain: AAAPVX

## elastase
[1]
  release of A-CV, MS-analysis: Treatment of the material with elastase released A-CV, as found by MS-analysis (m/z=484, positive mode)
[2]
  release of Ala-RBB, MS-analysis: Treatment with elastase released Ala-RBB, as found by MS-analysis (m/z=571, negative mode)
[3]
  release of A-RBB, MS-analysis: Treatment with elastase released A-RBB, as found by MS-analysis (m/z=571, negative mode)
CMC 9M31F-AAPF-RBB [4]
  release of the dye, ESI MS: Reaction with elastase is detected using ESI MS to detect the release of the dye
CMC 9M31F-AAPFA-RBB [5]
  release of the dye, ESI MS: Reaction with elastase was detected using ESI MS to detect the release of the dye
[6]
  cleavage, product found by MS: reaction with elastase to yield the mono-acetylated-Remazol Black B-amino derivative
H-AAPV-Ahx-CV
  release of Ahx-CV, MS-analysis: Treatment of the product of Example 72 with elastase releases no Ahx-CV, as found by MS-analysis (no m/z=526, positive mode)

B1: cathepsin G (protein)
chain: IIGGRESRPHSRPYMAYLQIQSPAGQSRCGGFLVREDFVLTAAHCWGSNINVTLGAHNIQRRENTQQHITARRAIRHPQYNQRTIQNDIMLLQLSRRVRRNRNVNPVALPRAQEGLRPGTLCTVAGWGRVSMRRGTDTLREVQLRVQRDRQCLRIFGSYDPRRQICVGDRRERKAAFKGDSGGPLLCNNVAHGIVSYGKSSGVPPEVFTRVSSFLPWIRTTMRS
[7]
  Cathepsin Cleavage: 0
CMC 9M31F-AAPF-RBB [8]
  Cathepsin Cleavage: ++
CMC 9M31F-AAPFA-RBB [9]
  Cathepsin Cleavage: ++
Fmoc-AAA-indoxyl ester
  Cathepsin Cleavage: 0
Fmoc-AAAA-Indoxyl ester
  Cathepsin Cleavage: 0
Fmoc-AAAPM-RBB
  Cathepsin Cleavage: 0
Fmoc-AAPA-Indoxyl ester
  Cathepsin Cleavage: 0
Fmoc-AAPF-Indoxyl ester
  Cathepsin Cleavage: 0
[10]
  Cathepsin Cleavage: 0
Fmoc-AAPV-(2-Napthol)
  Cathepsin Cleavage: 0
[11]
  Cathepsin Cleavage: 0
[12]
  Cathepsin Cleavage: 0
[13]
  Cathepsin Cleavage: 0
Fmoc-APV-Indoxyl ester
  Cathepsin Cleavage: 0
[14]
  Cathepsin Cleavage: 0
H-AAAPM-RBB
  Cathepsin Cleavage: 0
H-AAPF-RBB
  Cathepsin Cleavage: 0
H-AAPFA-RBB
  Cathepsin Cleavage: 0
H-AAPVAA-RBB
  Cathepsin Cleavage: 0
[15]
  Cathepsin Cleavage: +
[16]
  Cathepsin Cleavage: +

B2: human elastase from leucocytes (protein)
chain: IVGGRRARPHAWPFMVSLQLRGGHFCGATLIAPNFVMSAAHCVANVNVRAVRVVLGAHNLSRREPTRQVFAVQRIFENGYDPVNLLNDIVILQLNGSATINANVQVAQLPAQGRRLGNGVQCLAMGWGLLGRNRGIASVLQELNVTVVTSLCRRSNVCTLVRGRQAGVCFGDSGSPLVCNGLIHGIASFVRGGCASGLYPDAFAPVAQFVNWIDSIIQ
[17]
  Human Elastase Cleavage: 0(+)
  release of A-CV, mass peak: Treatment with porcine and human elastase releases A-CV, as proven by the appearance of a mass peak at m/z=484
[18]
  Human Elastase Cleavage: 0
[19]
  Human Elastase Cleavage: +
[20]
  Human Elastase Cleavage: ++
[21]
  Human Elastase Cleavage: +
[22]
  Human Elastase Cleavage: 0
[23]
  Human Elastase Cleavage: 0
[24]
  Human Elastase Cleavage: +++
AAPV-RBB-Labelled Silica
  Human Elastase Cleavage: ++
[25]
  Human Elastase Cleavage: +
[26]
  Human Elastase Cleavage: +
[27]
  Human Elastase Cleavage: ++
Fmoc-AAA-indoxyl ester
  Human Elastase Cleavage: ++
Fmoc-AAAA-Indoxyl ester
  Human Elastase Cleavage: 0
[28]
  Human Elastase Cleavage: ++
Fmoc-AAAPV-3-Indolamide
  Human Elastase Cleavage: ++
Fmoc-AAAPV-Indoxylester
  Human Elastase Cleavage: ++
Fmoc-AAPA-Indoxyl ester
  Human Elastase Cleavage: +++
Fmoc-AAPF-Indoxyl ester
  Human Elastase Cleavage: +
Fmoc-AAPV-(2-Napthol)
  Human Elastase Cleavage: +
[11]
  Human Elastase Cleavage: +
[12]
  Human Elastase Cleavage: +
[29]
  Human Elastase Cleavage: +++
Fmoc-AAPV-Indoxyl ester
  Human Elastase Cleavage: +++
Fmoc-APV-Indoxyl ester
  Human Elastase Cleavage: +
[14]
  Human Elastase Cleavage: 0
H-AAAPM-RBB
  Human Elastase Cleavage: +
[30]
  Human Elastase Cleavage: +++
[31]
  Human Elastase Cleavage: +++
[32]
  Human Elastase Cleavage: +++
[33]
  Human Elastase Cleavage: +++
[34]
  Human Elastase Cleavage: 0
[35]
  Human Elastase Cleavage: ++
[36]
  Human Elastase Cleavage: ++
[37]
  Human Elastase Cleavage: +++
[38]
  Human Elastase Cleavage: +++
